Publication PMC12333492, “Co-enzyme-free, enzymatic synthesis of aldehydes from renewable resources with a new and highly efficient alkene cleaving dioxygenase” (Green Chemistry, 2025)
One block for each molecule: values may come before it.

What was measured:
[1] = biological target: T1, MapADO (Moesziomyces aphidis, UniProt W3VHW6); assay: continuous UV-Vis initial rate of vanillin formation ([…] nm); type: biochemical; settings: O2 co-substrate; 10 mM potassium phosphate pH 7.4, 30 °C, 2% EtOH; initial-rate value taken (endpoint HPLC fit also printed in the 2nd table, row 3)
T1 construct: gene PaG_05861; codon-optimized, pET-28a, His6 tag, E. coli BL21 (DE3), IMAC purified, FeCl2 supplemented

[2] = biological target: T2, PAD (Heyndrickxia coagulans, UniProt A0A0C5C6Z1); assay: whole-cell decarboxylation to 4-vinylguaiacol, HPLC; type: cell-based; settings: co-expressed with MapADO; 200 mM phosphate pH 7.4, 30 °C
T2 construct: gene SB48_HM08orf00536; co-expressed with MapADO on one pET28 vector, E. coli BL21 (DE3) resting cells
T2 sequence (A0A0C5C6Z1 1-167): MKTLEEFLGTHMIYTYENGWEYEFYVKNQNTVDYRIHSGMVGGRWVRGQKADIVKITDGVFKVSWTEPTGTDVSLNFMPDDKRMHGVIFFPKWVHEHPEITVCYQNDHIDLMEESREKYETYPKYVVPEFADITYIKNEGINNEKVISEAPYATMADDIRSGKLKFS

[3] = substrate: COc1cc(/C=C/CO)ccc1O; assay: UV-Vis spectrophotometric initial rate; type: biochemical, Moesziomyces aphidis; settings: O2 co-substrate, 10 mM potassium phosphate pH 7.4, 30 °C, 2% EtOH
Description: UV-Vis spectrophotometric initial rate on MapADO

[4] = substrate: Oc1ccc(/C=C/c2cc(O)cc(O)c2)cc1; assay: endpoint HPLC-UV; type: biochemical, Moesziomyces aphidis; settings: O2 co-substrate, 10 mM potassium phosphate pH 7.4, 30 °C, 2% EtOH, endpoint measurement (authors: endpoint overestimates kcat and KM)
Description: (§1) endpoint HPLC-UV on MapADO

[5] = substrate: C=Cc1ccc(O)c(OC)c1; assay: endpoint HPLC-UV; type: biochemical, Moesziomyces aphidis; settings: O2 co-substrate, 10 mM potassium phosphate pH 7.4, 30 °C, 2% EtOH, endpoint measurement (authors: endpoint overestimates kcat and KM)
Description: as §1

Km [1]: 118 ± 13 µM
Molecule: CC=Cc1ccc(O)c(OC)c1 [1b, isoeugenol]

Molecule: COc1cc(/C=C/C(=O)O)ccc1O [2a, ferulic acid]
whole-cell decarboxylation to 4-vinylguaiacol, HPLC [2]: The decarboxylation was effective and resulted in the rapid accumulation of 2b

B1: MapADO (Moesziomyces aphidis) (protein)
chain: MAPTATQEPVPVPVTSKAAPSHGYVHPTDILPSGWPTATDLSGGAQPRRFEGTIFDVMTRGTIPKELHGTFYRIMPDYAQPPTYYKGGELNAPIDGDGTVAAFRFKDGKVDYRQRFVETDRFKVERRARKSMYGLYRNPYTHHPCVRQTVESTANTNVVMHAGRFLAMKENGNAYEMDPHTLKTLGYNPFNLPSKTMTAHPKQCSVTGNLVGFGYEAKGLATKDVYYFEVDPSGKVVRDLWLEAPWCAFIHDCALTPNYLVLMLWPFEANLERMKAGGHHWAYDYTKPITWITIPRGAKSKDEVKYWHWKNGMPIHTASGFEDEQGRIIIDSSLVHGNAFPFFPPDSDEQKKKQEADGTPKAQFVRWTIDPRKDNNEQLPDPEVILDTPSEFPQIDNRFMGVEYSSAFINVFVPDRSDGNKNVFQGLNGLAHYKRKEGTTEWYYAGDNCLIQEPVFSPRSKDAPEGDGFVLAIVDRLDLNRSEVVVIDTRDFTKAVAAVQLPFAIRSGIHGQWIPGEVTPDFETKGLVDLPKEEHWAPLSQSPYDPDA
notes: codon-optimized, pET-28a, His6 tag, E. coli BL21 (DE3), IMAC purified, FeCl2 supplemented
Km [3]: 445 ± 125 µM
kcat [3]: 90 ± 8 s⁻¹
Km [4]: 49 ± 9 µM
kcat [4]: 3.2 ± 0.1 s⁻¹
Km [5]: 220 ± 46 µM
kcat [5]: 361 ± 12 s⁻¹
